Measurements published in patent US20220119490A1 (Genentech, published 2022).

What was measured:
PTPRO expressed on cells = biological target: T1, PTPRO expressed on cells (human, UniProt Q16827 30-1216); assay: cell surface interaction assay: query ECD tetramerised with fluorescent streptavidin on transfected cells, immunofluorescence
T1 construct: whole, on cells
T1 sequence (looked up): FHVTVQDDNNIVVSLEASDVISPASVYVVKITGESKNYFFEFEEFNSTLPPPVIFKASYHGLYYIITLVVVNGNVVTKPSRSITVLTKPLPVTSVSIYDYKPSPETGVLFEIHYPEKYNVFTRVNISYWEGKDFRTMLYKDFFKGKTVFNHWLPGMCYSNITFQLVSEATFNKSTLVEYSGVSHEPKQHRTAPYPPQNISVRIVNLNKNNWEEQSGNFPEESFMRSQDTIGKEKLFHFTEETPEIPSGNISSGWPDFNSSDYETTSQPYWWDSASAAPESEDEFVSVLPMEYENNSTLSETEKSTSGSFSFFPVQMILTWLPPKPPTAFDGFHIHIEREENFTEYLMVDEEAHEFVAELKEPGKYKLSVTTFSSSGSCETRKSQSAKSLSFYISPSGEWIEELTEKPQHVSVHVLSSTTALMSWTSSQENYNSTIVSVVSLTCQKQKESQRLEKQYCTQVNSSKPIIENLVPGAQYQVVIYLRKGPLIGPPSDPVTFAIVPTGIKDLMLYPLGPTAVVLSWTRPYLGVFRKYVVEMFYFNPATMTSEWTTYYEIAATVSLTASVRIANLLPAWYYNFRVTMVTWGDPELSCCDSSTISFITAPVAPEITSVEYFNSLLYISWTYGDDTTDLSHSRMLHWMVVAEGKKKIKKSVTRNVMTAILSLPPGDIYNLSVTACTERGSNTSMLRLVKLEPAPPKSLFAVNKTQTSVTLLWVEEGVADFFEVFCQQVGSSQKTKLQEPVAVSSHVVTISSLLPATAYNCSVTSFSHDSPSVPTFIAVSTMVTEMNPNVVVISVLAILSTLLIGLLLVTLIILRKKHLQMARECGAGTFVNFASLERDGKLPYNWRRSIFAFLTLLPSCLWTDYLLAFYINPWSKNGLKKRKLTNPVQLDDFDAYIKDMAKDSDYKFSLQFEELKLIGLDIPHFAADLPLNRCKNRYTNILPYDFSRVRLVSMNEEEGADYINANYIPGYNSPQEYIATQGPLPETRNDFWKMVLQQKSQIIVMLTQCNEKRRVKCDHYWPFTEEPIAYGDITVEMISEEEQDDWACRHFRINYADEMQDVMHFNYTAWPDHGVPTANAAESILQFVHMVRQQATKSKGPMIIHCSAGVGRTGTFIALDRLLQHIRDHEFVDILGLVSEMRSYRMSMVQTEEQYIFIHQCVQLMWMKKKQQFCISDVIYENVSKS

PTPRS expressed on cells = biological target: T2, PTPRS expressed on cells (human, UniProt Q13332 30-1948); assay: as above
T2 construct: whole, on cells; also called receptor-type tyrosine-protein phosphatase S

PTPRD expressed on cells = biological target: T3, PTPRD expressed on cells (human, UniProt P23468 21-1912); assay: as above
T3 construct: whole, on cells; also called receptor-type tyrosine-protein phosphatase delta

PTPRG expressed on cells = biological target: T4, PTPRG expressed on cells (human, UniProt P23470 20-1445); assay: as above
T4 construct: whole, on cells

PTPRM expressed on cells = biological target: T5, PTPRM expressed on cells (human, UniProt P28827 21-1452); assay: as above
T5 construct: whole, on cells

[1] = biological target: T6, PTPRD G203E K204E variant extracellular domain (human, UniProt P23468 21-1265); assay: extracellular interaction screen: pentameric PTPRD variant ECD on ECD-Fc prey (FIG. 5L)
T6 construct: extracellular domain; also called G203E/K204E double mutant; IG2 mutant
T6 sequence (looked up): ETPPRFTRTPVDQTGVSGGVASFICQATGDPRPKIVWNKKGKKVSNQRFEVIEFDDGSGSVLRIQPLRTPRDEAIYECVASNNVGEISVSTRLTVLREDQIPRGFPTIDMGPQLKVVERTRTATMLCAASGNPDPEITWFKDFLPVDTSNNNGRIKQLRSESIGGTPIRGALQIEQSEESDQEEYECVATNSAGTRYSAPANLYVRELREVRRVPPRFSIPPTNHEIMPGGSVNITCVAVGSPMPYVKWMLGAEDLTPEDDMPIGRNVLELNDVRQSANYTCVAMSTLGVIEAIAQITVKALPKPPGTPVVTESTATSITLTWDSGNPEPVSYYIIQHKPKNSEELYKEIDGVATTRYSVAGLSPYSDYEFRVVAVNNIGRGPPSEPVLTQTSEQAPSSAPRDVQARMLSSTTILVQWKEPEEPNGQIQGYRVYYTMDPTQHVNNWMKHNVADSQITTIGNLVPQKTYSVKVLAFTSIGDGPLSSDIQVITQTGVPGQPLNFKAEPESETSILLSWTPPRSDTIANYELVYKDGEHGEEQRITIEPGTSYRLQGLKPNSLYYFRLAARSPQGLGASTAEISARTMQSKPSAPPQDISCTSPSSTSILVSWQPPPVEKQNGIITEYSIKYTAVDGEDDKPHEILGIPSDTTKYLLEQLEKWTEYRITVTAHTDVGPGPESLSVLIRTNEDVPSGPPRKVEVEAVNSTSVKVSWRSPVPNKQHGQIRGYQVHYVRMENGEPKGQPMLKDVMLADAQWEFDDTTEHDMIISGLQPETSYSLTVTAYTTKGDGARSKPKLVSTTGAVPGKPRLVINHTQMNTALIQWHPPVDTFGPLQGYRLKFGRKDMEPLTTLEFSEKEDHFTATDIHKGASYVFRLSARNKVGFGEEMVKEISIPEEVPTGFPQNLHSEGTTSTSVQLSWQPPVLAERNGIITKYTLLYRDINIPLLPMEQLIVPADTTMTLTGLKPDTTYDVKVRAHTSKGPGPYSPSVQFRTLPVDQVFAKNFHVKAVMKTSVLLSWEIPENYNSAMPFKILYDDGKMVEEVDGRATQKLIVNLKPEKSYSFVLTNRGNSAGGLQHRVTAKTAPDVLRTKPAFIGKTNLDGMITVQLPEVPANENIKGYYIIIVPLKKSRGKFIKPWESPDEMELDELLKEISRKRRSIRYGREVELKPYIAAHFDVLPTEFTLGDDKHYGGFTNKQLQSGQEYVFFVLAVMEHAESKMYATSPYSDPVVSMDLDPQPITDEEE

T2 sequence (Q13332 30-1948): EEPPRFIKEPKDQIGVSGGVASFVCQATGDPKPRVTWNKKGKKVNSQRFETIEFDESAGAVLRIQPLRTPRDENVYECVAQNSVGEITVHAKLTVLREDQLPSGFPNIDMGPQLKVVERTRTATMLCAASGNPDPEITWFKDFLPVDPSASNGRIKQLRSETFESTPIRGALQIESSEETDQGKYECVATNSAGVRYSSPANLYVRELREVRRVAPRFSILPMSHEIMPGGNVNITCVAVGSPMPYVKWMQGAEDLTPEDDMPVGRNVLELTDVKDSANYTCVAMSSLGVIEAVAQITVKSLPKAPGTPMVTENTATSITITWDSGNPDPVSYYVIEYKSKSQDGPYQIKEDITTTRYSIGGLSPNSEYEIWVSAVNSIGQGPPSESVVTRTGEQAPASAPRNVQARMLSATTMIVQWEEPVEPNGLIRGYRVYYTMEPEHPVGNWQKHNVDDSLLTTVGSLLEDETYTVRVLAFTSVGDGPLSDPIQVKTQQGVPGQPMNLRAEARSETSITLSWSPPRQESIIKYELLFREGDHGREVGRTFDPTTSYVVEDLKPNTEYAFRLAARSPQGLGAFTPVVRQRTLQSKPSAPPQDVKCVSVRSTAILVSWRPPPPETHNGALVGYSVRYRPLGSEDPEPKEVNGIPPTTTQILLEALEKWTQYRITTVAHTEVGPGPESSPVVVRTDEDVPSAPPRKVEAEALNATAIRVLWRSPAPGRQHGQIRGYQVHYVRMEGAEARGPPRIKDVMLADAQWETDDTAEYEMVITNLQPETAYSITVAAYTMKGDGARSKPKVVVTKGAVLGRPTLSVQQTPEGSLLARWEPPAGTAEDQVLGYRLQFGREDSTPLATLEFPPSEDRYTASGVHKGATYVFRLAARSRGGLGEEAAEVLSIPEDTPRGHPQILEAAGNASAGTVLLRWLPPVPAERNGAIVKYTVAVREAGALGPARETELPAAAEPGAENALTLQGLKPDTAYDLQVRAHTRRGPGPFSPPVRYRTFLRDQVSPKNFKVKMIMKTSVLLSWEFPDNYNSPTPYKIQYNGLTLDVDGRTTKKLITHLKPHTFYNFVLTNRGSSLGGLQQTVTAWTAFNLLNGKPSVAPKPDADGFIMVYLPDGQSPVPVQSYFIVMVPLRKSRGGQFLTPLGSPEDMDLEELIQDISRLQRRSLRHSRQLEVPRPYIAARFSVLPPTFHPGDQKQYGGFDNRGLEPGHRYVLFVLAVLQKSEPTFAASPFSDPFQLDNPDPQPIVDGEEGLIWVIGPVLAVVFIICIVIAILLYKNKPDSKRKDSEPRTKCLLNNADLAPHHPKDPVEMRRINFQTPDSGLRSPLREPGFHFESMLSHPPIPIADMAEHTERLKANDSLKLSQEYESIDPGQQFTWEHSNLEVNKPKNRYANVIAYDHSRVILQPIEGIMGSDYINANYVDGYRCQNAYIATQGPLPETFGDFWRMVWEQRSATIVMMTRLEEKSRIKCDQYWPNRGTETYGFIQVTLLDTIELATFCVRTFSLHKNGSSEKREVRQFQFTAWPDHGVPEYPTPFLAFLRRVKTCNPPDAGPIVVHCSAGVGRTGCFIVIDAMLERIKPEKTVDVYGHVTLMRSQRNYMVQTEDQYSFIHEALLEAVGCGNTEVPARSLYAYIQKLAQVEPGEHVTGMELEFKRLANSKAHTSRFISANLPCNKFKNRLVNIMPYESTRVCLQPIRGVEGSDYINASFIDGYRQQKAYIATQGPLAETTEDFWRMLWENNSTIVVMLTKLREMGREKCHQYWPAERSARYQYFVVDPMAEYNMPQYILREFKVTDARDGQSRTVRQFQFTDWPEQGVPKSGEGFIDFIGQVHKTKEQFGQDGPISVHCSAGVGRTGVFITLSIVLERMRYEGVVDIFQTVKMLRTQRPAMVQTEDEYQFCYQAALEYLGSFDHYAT
T4 sequence (P23470 20-1445): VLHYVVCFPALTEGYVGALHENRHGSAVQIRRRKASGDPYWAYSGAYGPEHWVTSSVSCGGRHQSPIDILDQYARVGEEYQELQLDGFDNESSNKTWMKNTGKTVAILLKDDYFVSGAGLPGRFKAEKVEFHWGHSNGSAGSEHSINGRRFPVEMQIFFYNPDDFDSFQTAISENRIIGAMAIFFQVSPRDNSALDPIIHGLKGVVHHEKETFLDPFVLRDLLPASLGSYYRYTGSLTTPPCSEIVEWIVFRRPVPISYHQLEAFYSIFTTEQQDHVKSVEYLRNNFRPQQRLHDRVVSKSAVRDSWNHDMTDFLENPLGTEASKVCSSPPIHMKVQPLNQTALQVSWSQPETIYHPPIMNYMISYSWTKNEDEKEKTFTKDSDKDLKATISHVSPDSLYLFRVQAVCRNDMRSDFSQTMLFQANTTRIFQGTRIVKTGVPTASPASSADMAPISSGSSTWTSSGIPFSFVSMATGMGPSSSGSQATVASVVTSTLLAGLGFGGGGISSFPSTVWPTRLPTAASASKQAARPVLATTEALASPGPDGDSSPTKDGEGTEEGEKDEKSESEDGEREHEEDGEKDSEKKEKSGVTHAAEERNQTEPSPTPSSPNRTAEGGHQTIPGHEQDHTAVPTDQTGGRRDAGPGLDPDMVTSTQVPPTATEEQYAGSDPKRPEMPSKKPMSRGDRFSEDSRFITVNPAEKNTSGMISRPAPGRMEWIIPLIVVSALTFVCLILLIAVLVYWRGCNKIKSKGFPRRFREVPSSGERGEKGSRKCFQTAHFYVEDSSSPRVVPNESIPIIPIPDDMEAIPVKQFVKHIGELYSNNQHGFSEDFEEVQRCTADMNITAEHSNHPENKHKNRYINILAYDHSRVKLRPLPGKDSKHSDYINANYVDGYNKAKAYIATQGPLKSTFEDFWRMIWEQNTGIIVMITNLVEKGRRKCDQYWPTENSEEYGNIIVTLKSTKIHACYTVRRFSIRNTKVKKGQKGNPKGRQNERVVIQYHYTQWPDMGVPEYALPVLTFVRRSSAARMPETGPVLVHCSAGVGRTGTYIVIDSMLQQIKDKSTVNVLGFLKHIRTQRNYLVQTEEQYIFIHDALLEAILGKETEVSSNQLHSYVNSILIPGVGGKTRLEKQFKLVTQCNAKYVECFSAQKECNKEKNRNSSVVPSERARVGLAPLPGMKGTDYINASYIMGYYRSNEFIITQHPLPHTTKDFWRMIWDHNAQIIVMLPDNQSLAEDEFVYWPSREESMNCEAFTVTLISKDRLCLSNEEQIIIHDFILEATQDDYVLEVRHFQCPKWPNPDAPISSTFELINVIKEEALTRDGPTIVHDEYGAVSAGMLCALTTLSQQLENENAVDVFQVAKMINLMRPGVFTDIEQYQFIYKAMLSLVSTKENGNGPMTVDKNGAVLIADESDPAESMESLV
T5 sequence (P28827 21-1452): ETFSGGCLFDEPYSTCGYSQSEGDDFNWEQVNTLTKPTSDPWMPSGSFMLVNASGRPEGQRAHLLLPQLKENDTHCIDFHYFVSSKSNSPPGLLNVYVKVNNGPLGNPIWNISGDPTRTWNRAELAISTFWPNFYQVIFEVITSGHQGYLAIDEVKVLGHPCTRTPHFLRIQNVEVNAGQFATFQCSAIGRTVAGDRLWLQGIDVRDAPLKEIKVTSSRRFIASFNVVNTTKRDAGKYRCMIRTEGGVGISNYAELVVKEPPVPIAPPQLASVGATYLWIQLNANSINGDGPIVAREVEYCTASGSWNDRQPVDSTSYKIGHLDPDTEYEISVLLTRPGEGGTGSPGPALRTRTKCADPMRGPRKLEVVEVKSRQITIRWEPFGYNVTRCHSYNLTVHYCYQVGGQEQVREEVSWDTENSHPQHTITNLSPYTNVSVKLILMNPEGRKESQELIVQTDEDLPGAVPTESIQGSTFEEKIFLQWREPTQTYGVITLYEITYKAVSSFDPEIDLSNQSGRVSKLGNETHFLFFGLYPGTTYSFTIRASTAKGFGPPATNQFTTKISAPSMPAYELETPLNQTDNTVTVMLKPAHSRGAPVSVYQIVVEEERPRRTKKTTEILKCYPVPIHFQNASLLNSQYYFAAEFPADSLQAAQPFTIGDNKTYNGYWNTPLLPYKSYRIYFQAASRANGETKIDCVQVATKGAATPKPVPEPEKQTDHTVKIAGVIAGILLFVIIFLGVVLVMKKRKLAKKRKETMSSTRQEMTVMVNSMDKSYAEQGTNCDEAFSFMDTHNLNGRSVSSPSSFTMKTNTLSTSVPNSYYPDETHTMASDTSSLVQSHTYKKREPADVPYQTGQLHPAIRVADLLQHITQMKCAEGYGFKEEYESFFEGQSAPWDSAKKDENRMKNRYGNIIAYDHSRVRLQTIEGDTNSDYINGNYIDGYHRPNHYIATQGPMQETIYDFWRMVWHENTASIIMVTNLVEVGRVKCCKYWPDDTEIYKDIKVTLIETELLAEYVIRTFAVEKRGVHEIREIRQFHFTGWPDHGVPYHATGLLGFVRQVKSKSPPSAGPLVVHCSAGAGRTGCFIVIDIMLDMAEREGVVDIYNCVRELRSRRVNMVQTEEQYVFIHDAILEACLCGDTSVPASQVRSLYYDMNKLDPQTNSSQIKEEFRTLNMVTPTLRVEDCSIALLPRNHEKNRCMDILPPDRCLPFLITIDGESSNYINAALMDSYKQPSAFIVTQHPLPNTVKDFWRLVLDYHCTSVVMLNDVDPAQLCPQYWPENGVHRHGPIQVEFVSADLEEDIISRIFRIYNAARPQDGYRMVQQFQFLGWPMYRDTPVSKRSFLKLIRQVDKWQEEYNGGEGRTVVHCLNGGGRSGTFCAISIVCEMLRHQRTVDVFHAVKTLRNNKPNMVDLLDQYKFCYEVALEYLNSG

Row | Binder | binding result (PTPRO expressed on cells) | binding result (PTPRS expressed on cells) | binding result (PTPRD expressed on cells) | binding result (PTPRG expressed on cells) | binding result (PTPRM expressed on cells) | binding result [1]
1 | CNTN1 extracellular domain (receptor, human, UniProt Q12860 21-993, looked up, extracellular domain; Streptavidin tetramer in cell assays; ECD-Fc in SPR; also called contactin 1) EFTWYRRYGHGVSEEDKGFGPIFEEQPINTIYPEESLEGKVSLNCRARASPFPVYKWRMNNGDVDLTSDRYSMVGGNLVINNPDKQKDAGIYYCLASNNYGMVRSTEATLSFGYLDPFPPEERPEVRVKEGKGMVLLCDPPYHFPDDLSYRWLLNEFPVFITMDKRRFVSQTNGNLYIANVEASDKGNYSCFVSSPSITKSVFSKFIPLIPIPERTTKPYPADIVVQFKDVYALMGQNVTLECFALGNPVPDIRWRKVLEPMPSTAEISTSGAVLKIFNIQLEDEGIYECEAENIRGKDKHQARIYVQAFPEWVEHINDTEVDIGSDLYWPCVATGKPIPTIRWLKNGYAYHKGELRLYDVTFENAGMYQCIAENTYGAIYANAELKILALAPTFEMNPMKKKILAAKGGRVIIECKPKAAPKPKFSWSKGTEWLVNSSRILIWEDGSLEINNITRNDGGIYTCFAENNRGKANSTGTLVITDPTRIILAPINADITVGENATMQCAASFDPALDLTFVWSFNGYVIDFNKENIHYQRNFMLDSNGELLIRNAQLKHAGRYTCTAQTIVDNSSASADLVVRGPPGPPGGLRIEDIRATSVALTWSRGSDNHSPISKYTIQTKTILSDDWKDAKTDPPIIEGNMEAARAVDLIPWMEYEFRVVATNTLGRGEPSIPSNRIKTDGAAPNVAPSDVGGGGGRNRELTITWAPLSREYHYGNNFGYIVAFKPFDGEEWKKVTVTNPDTGRYVHKDETMSPSTAFQVKVKAFNNKGDGPYSLVAVINSAQDAPSEAPTEVGVKVLSSSEISVHWEHVLEKIVESYQIRYWAAHDKEEAANRVQVTSQEYSARLENLLPDTQYFIEVGACNSAGCGPPSDMIEAFTKKAPPSQPPRIISSVRSGSRYIITWDHVVALSNESTVTGYKVLYRPDGQHDGKLYSTHKHSIEVPIPRDGEYVVEVRAHSDGGDGVVSQVKIS | no binding | no binding | no binding | no binding | no binding | –
2 | LRFN5 extracellular domain (receptor, human, UniProt Q96NI6 18-529, looked up, extracellular domain; Streptavidin tetramer in cell assay; ECD-Fc prey in the variant screen; also called LFRN5) QICPKRCVCQILSPNLATLCAKKGLLFVPPNIDRRTVELRLADNFVTNIKRKDFANMTSLVDLTLSRNTISFITPHAFADLRNLRALHLNSNRLTKITNDMFSGLSNLHHLILNNNQLTLISSTAFDDVFALEELDLSYNNLETIPWDAVEKMVSLHTLSLDHNMIDNIPKGTFSHLHKMTRLDVTSNKLQKLPPDPLFQRAQVLATSGIISPSTFALSFGGNPLHCNCELLWLRRLSREDDLETCASPPLLTGRYFWSIPEEEFLCEPPLITRHTHEMRVLEGQRATLRCKARGDPEPAIHWISPEGKLISNATRSLVYDNGTLDILITTVKDTGAFTCIASNPAGEATQIVDLHIIKLPHLLNSTNHIHEPDPGSSDISTSTKSGSNTSSSNGDTKLSQDKIVVAEATSSTALLKFNFQRNIPGIRMFQIQYNGTYDDTLVYRMIPPTSKTFLVNNLAAGTMYDLCVLAIYDDGITSLTATRVVGCIQFTTEQDYVRCHFMQSQFLGGTM | – | – | – | – | – | no binding
3 | LRRC4B extracellular domain (receptor, human, UniProt Q9NT99 36-576, looked up, extracellular domain; ECD-Fc prey; also called NGL-3; netrin-G ligand-3) AGGGGVAVTSAAGGGSPPATSCPVACSCSNQASRVICTRRDLAEVPASIPVNTRYLNLQENGIQVIRTDTFKHLRHLEILQLSKNLVRKIEVGAFNGLPSLNTLELFDNRLTTVPTQAFEYLSKLRELWLRNNPIESIPSYAFNRVPSLRRLDLGELKRLEYISEAAFEGLVNLRYLNLGMCNLKDIPNLTALVRLEELELSGNRLDLIRPGSFQGLTSLRKLWLMHAQVATIERNAFDDLKSLEELNLSHNNLMSLPHDLFTPLHRLERVHLNHNPWHCNCDVLWLSWWLKETVPSNTTCCARCHAPAGLKGRYIGELDQSHFTCYAPVIVEPPTDLNVTEGMAAELKCRTGTSMTSVNWLTPNGTLMTHGSYRVRISVLHDGTLNFTNVTVQDTGQYTCMVTNSAGNTTASATLNVSAVDPVAAGGTGSGGGGPGGSGGVGGGSGGYTYFTTVTVETLETQPGEEALQPRGTEKEPPGPTTDGVWGGGRPGDAAGPASSSTTAPAPRSSRPTEKAFTVPITDVTENALKDLDDVMKTTK | – | – | – | – | – | no binding
